Laboratory results published in the DeepSol protein solubility set.

assay: soluble on expression in E. coli; label from the status in PepcDB or PDB records

| Sequence | soluble on expression in E. coli |
| --- | --- |
| MSLQDTWGGKMNTLGDRVLLCNDKRSLPAAAVATPFLFESMLFSVCTRGYARLLIDSREIEVKEGELLVVMPRKTIEVIESSCFRAFHLCLDKEILALSAIRISGFISIINKLHSNEPFRPERMEKDFLTATLDLIRNALQNGGRHQEEIVIYLISSLFLFLDDMIADEVEKDCKHTRSETICRDFLLLVSEHHKEQHTVKFYADRLCLSSKHLALTIKTVMGQSASKVINSFIIQQAKSLLRYTDKTVQEIGYELNFSTQSFFGKYFKQHTGMSPGEYRSQEARNRQSEES | not soluble |
| MAHHHHHHMTHTGAAAASGASASTLSSQSTAAVASDDAFSEQHQGQKQRNLLRCFALADLLGVSPTVVQQLANAAATPSSSLHHARNTSRASSHCSTESDPVIRAYQLEQILVAAVVKQLFDRCCDPDQSIQNGGSVDAGQPAASSVSTTARQPARKHQPSSLKAPPWSAALSEPRRACTSPQQPDGERLLPSVLSSPQGVARVDALHASFLPLLLVALLQRVSEGSGGDTQATDATVPRQTPDTNAAASNTSAAVFSLRQQRSFRTALHQLLPLYTPLLLQRRRAARAVVSSVVVALQEYPCSGHDDGESTTEEEESRKRIQRLVHQGLCCSEVKQWLHAARLLSDTLVACLSHVSPRASIAATAPPPAIRRRRGGRGRFDGGAVDTGDGRGVAECGRDAPPRWRVGGGGAASVRSLVVGIRYERFEWCRAARARRQHPCKCWGPNEPTRAVHHHHHCRGARACRGHVYRRRGDVRRHLAPRGWPFWRTAAAATVELCSCWWSHSADTTRCTDTLSR | not soluble |
| MSLDSGTLGTPPPEQGPTPPTTLPDVPAPVIPSASVTSAASDFLAALHPPVTVPDPAPPPPPAPAAGNPPDTVTGDSVLQRILRGPTGPGTTSLAPAVRYGRQPGPEAPASAPPAAGRAVPGLYHHPVPEPDPVRVEEVSRRIKRWAEDEVQLYPEEWEGQFDGFSVGRYMVGCHPDAPTVDHLMLATRLMVAENAVDDCYCEDHGGSPVGLGGRLLLAHTAIDHFHSTAEYTPTWQASLAADAPRRAYDSAMGYFVRAATPSQSDRYRHDMARLHLGYLAEGAWAQTGHVPEVWEYLAMRQFNNFRPCPTITDTVGGYELPADLHARPDMQRVIALAGNATTIVNDLYSYTKELNSPGRHLNLPVVIAEREQLCERDAYLKAVEVHNELQHSFEAAAADLAEACPLPPVLRFLRGVAAWVDGNHDWHRTNTYRYSLPDFWEGHHHHHH | soluble |
| MEGISKPMERYDSVVFAGMKQDGTIEFIKVYALNEDLAITILDQFLRENNLHPSDFVVIQRGLEDIKGKDIISTRTEEDLSAMLARLGLRLVSNGVLHTRGAEKIYQITAISKSLIERLQGEDKDKVSTIIKEEISIDFSNLKLPEKYMKKLLLLSLMEDTFILNRAELNVPEVIKRAVKGVVSIPRLIERDNIIIKVFDEELHTVQGSYLDRVIITPPVVHWDAHIDELDSFSFQEVEENVYEPPLFVKAMKGFLVLTEPPRDLVVMLLKLKRRGEVKVSLKGRQIRIPLNFTLVVDTKYPERYSGLKFPIRINLPPFDDETFAQMLSMVLGTKVPQDLVAMFPEEYKTFLGVEILSNLWKKLRKRGRKSEIELLKEMATIVTGGII | soluble |
| GPGSMMVGKAPKNCVHIGLCVLYSGSGFRGLQIQVHAPTCHTVEGVLIQALKDAGIIADVVRGRPAGEHHHFARSCRTDRGVHAIRNMVSLFVPKEVFEKMGQAEGICEKLNRQLPATVRVANVMQLSGSFIPRHCCNRRVYRYMLPLYALLPPCDTWAAVDKYYPGCLAHVQALAEEAAAAQRTQYSIPYVDLEKMNAVARPADAQALPSSWLRDLKASADRCNQVLRSHFTGSRRYHNFSVDIDSNRSGVSAKVIQPTTDEALRAIYRSEVCPRLFFFPCSTKGGAADEAPVPVHGESRTEYDMNLLRYPPRTPTSPEDTVGGSAAASTTTTPTGTSTTPATCLSPNTTALPFLFFQIEGCSFLLNMIRKIIGSVLAVCRGARESILEDAFSPECRVTTPLAPGPYLYLAQSTYHGYDRSIGGAGNAHQPGRLKTVQDAWGGAVSEAAELFAFHKIAADIVDVDLNAMPPLDDILAARDRAREASRPHTAVEDAHLAEMKEYKPVLPTRIPWPASSDMTVFLRLLRVHNWNVRPIQLDPACKALREIKNRKERLTASSVAAAASPGAEASKAGEADGGDTRANEATVEQAATPTGDAWRIRSEGSSTGGVPEGGEDGWLYVADTPEEASVQRQAYFASLWKRARPWEYDDATGKSLIHGGEVGTEDDFDDGDGSTARPRRHRRV | soluble |
| MLDRILSIRKSRANRLRESMAKINSQIKEVDGKLDDCEQSIKESIASKQAYCASLVNLDKVSLYKYQIKNNAFDEQKQRLYEKKSSLSKEKRSLLDSQKRTKENLQHVNKSVEKLSFAIKEHYFD | not soluble |
| MFTYKIGLSTSEHDRFVIDSPQTNLLQSSSWAKIKDSWGNDRLGFYQDDKLVAVASVLIQPLPLGFSMIYIPRGPIMDYQDKELLAFVITSLKKYAKTKRALFVKFDPSLFVTKNLISQEVNINEDTLSIAKDIQALGVEWTGLTEDMAENIQPRFQANIYKEDFTEEQLSKST | not soluble |
| RPLQGEATNLTDNTIFRIRQLKGTWNLLIIDSGKCEEYCQEKLYTLRQVRLAQHVDKDKVQRVWLINDDIRPDQETIDKFKGTRLVLANGKDLLKEFPAENKREDHIYVVDPMGNLMMRYPRNADPRKMVGDLKRLLKLSHLEH | not soluble |
| MAGAMIEARGLVKRFVSGRIRRRVVEALKGVSFSVYEGEIYSFLGPNGAGKTTTVRILSTLLDPDGGEARVAGFDVVKERWEVRKRIGVMLSVERGFYWKLTGRENLYYFGRIYGIPQGELKSRIKEVLDLVGLTDLGGADKPFEEMSLGMKARLGLARVLLKDPEVLILDEPTLGLDPASARTIRGVIRSLASEGRTIFITTHNMVEAEMISDRVGIIIGGRIAMEGTPDELKRRVFSSINLEFRVKASGHAAKKFFYDVKGEYGNRIVGGVTFSDGILTFRVSVNRDEPAEPIIDRITRLAYQYRFKILEIKALEPSLEDVFVAVSESGEARSGRVKGSIAQRLEHHHHHH | soluble |
| MGSDKIHHHHHHMLQTLQKDAIELLKTLIKTESFSKEEHNTAEILNTFLVERGVETIREKNNVWAFNKHFDKNKPTILLNSHHDTVKPNPGYTNDPFEPIVKDGKLFGLGSNDAGGCLVSLIATFLHFYNETNLKYNFCIAATAEEEISGFDGLELVYPKLGPIDFAIVGEPTLMDIAVAEKGLMVVDCVAIGKAGHAAREEGENAIYIALKDIEWIRNYKFERVSPHLGPMKMSVTIINAGYQHNVVPEKCHFTIDVRITEEYKNEEVLKIIDDNIQSEVNPRSVRLRPSFIDPNHELVHAAIKHGAKTYGSPTTSDQALIPVPSVKMGPGNSARSHTANEFIWLIEIEEGIEKYIKVLSEIVLA | not soluble |
| MAHHHHHHMVNRSTRLQRGPLKKKTTAVAARTSSHAEQPCADGPAKTSSPQTNSIKNVEMTVGVHASPAVAVGDTPQGKLRLRRRAKKDRPLVAAKTDMKSTVRNRKRGRARGSQPGRGSTATTIVHDEQRVTRRPAGGNRQRNQHRQLAEKLVAREEHQSRKKAAEKRMETAKAELALFDQVMQIPSFEENPFAAIEGHLNGTMAFLQPQTPDVGRRKLEE | not soluble |
| DGTSQLAELVDAAAERLEVADPVAAFKWRAQLPIEDSGRVEQQLAKLGEDARSQHIDPDYVTRVFDDQIRATEAIEYSRFSDWKLNPASAPPEPPDLSASRSAIDSLNNRMLSQIWSHWSLLSAPSCAAQLDRAKRDIVRSRHLDSLYQRALTTATQSYCQALPPA | soluble |
| SEWLKSTDYGKYEGLTKNYMDYLSRLYEREIKDFFEVAKIKMTGTTKESKKFGLHGSSGKLTGSTSSLNKLSVQSSGNRRSQSSSLLDMGNMSASDLDVADRTKFDKIFEQVLSELEPLCLAEQDFISKFFKLQQHQSMPGTMAEAEDLDGGTLSRQHNCGTPLPVSSEKDMIRQMMIKIFRCIEPELNNLIALGDKIDSFNSLYMLVKMSHHVWTAQNVDPASFLSTTLGNVLVTVKRNFDKCISNQIRQMEEVKISKKSKVGILPFVAEFEEFAGLAESIFKNAERRGDLDKAYTKLIRGVFVNVEKVANESQKTPRDVVMMENFHHIFATLSRLKISCLEAEKKEAKQKYTDHLQSYVIYSLGQPLEKLNHFFEGVEARVAQGIREEEVSYQLAFNKQELRKVIKEYPGKEVKKGLDNLYKKVDKHLCEEENLLQVVWHSMQDEFIRQYKHFEGLIARCYPGSGVTMEFTIQDILDYCSSIAQSH | soluble |
| MGSDKIHHHHHHDNDWVDQSRNPDVIAPDAYASFSINIPHASKTRAVSTDPGIAAENTVKSLHVFIYDAESPNTPTVAEFTVAGGTLTQKPAGSSTWMTSQPISTKKTDKYIFAGVNLNAEIVNYITSNGLGAFSYKDFTQEITKLADQTNGFVMFNSAYPTLTPAADLYEKKSEAENNHITISVNRVTAKAAVFQSQSFVVNGGGTMTDLKFGWRNLNKKFYFIQDNRDALIKDYNWANYTAEDFTRGTDAINVYASADVPTSFSYATENAFQYISGTSNVDAATFISVSGVFTPTNIISAKKNPPTVAADFEIIVNPKPVDKTFFVVRTADGVANYFIDGPTAEKFAELCAANTPQMPSINGIYLLSENTYSNGLCYYHIFVNGDAVTPQAPYNIYRNQYFKININSIQAPGNPSDNFDRGEPIKPNSWIGVDIQIIPWEVIEEDHDL | not soluble |
| MKFTDKTTQADTQRTITKDGFLVVPATISKVGVFDYLATELGLKEDGIKKVARTEKSLFSDETIKSFENATLTVGHLKDGVNAKNWKQLSVGVVRNVKRVGDELTAEAWIYDEQAIKTVQEHGVEQLSCGYDCDIKPSTVQDADFEMSPMIGNHVAIVAKGRCGGSVKLADEDKTIMGKTAKILDAFLGAFGIKLSDEQKKQIEDEEKSGSEEGKEPKGEQPTKPKEKKSEPENKKEDDVEKEELEKSLKAKDEEIQQLKDAQAKRDAEVKQAAVLADAKTAFKEVNFADNATVREIQESAVVAQGIFTKDEAAKLSDEEISGAYQTAKVVVAKLADERKSLGNILLGDAEPKAAPKIDFNKTYNS | not soluble |
| MGKITGFLEIERHDRKYTPVAERVKHFHEFVVPLTERETRDQAARCMNCGIPYCHGTGSVAPGTPGCPVNNQIPDFNDLVYQGNWEEASRNLHSTNNFPEFTGRICPAPCEASCTLNIDDNPVTIKTIECAIVDRAWDNGWLKPEVASVKTGKKVAVIGSGPAGMACAQQLARAGHDVHLFEKFAKAGGLLRYGIPDFKMEKGIIDRRVKQMEGEGVTFHYNSHVGADGNVDPREMLNEYDAVALTGGAEAPRDLPIPGRDLQGIHYAMDFLPQQNRRVSEEPLNGVTEILAGGKHVVVIGGGDTGSDCIGTSLRQGALSVTQLEIMPAPPERENKGLTWPNWPLKMRTSSSQAEGAIREFAVLTQKFSGENGQVKKLHCVRVDDKFKPIAGTEFELDAELVLLAMGFVHPVHEGLLKLLSVELDPRGNVKANTLDYQTSRPNVFTAGDMRRGQSLVVWAIREGRLCARSIDTFLMGKTDLPRLEHHHHHH | soluble |
| MAHHHHHHMRSPASEGDCGVRLRVSWREGKQRALTDELDAKHQSDPYETLQTSDRKVFVSNTAAGAGRLLTDPQVHADDKGFSTYLRERLLVRVLPEGQKCVCGADASNEHVHTCTRLQQNPRTTRHEMISMTFANGLRLCGFQCGMEPRLTEASRRRPDILIVGLDTYAITDVTVTYAGRVTAYVSEESMEEADPLRAARDRLTQKRQKYRHWALANGLDFEPFVMLTNGAIHPAIRRWLRRILGARVLAYAGAQWVAERQ | soluble |
| GPGSMKNISNKRIIKDLKLLLEEVDANNEANSSGSPHSAAIFSVHTDTIYNWILKVKAPADSVYGGAGNTYQLSVLFSEDYPHEPPTVRFVTPVYSPLVTEEGGICDRMVNDVWTPDQRASDVIKLVLDRVFSQYKNHSDDDVNPEARHYLEKFPQEFAARVRRGG | soluble |
